Kd data for 24 molecules are collected here from patent US20140363428A1 (Chugai, published 2014).

Positions count from the first letter of the chain named. Names and notes keep the numbering of the source.

The labels stand for the following.
B1: Fv-4-F1172 (antibody)
heavy: QVQLQESGPGLVKPSETLSLTCAVSGHSISHDHAWSWVRQPPGEGLEWIGFISYSGITNYNPSLQGRVTISRDNSKNTLYLQMNSLRAEDTAVYYCARSLARTTAMDYWGEGTLVTVSSASTKGPSVFPLAPSSKSTSGGTAALGCLVKDYFPEPVTVSWNSGALTSGVHTFPAVLQSSGLYSLSSVVTVPSSSLGTQTYICNVNHKPSNTKVDKKVEPKSCDKTHTCPPCPAPELLGGPSVFLFPPKPKDTLMISRTPEVTCVVVDVSHEDPEVKFNWYVDGVEVHNAKTKPREEQYNSTYRVVSVLTVLHQDWLNGKEYKCKVSNKALPAPIEKTISKAKGQPREPQVYTLPPSRDELTKNQVSLTCLVKGFYPSDIAVEWESNGQPENNYKTTPPVLDSDGSFFLYSKLTVDKSRWQQGNVFSCSVMHEALHHHYTRKELSLSP
light: DIQMTQSPSSLSASVGDSVTITCQASTDISSHLNWYQQKPGKAPELLIYYGSHLLSGVPSRFSGSGSGTDFTFTISSLEAEDAATYYCGQGNRLPYTFGQGTKVEIERTVAAPSVFIFPPSDEQLKSGTASVVCLLNNFYPREAKVQWKVDNALQSGNSQESVTEQDSKDSTYSLSSTLTLSKADYEKHKVYACEVTHQGLSSPVTKSFNRGEC
B2: Fv-4-F1171 (antibody, human IgG1, kappa)
heavy: B1 heavy with S426N, M430L, H436S, R440Q, E442S
light: B1 light
B3: Fv-4-F1173 (antibody, human IgG1, kappa)
heavy: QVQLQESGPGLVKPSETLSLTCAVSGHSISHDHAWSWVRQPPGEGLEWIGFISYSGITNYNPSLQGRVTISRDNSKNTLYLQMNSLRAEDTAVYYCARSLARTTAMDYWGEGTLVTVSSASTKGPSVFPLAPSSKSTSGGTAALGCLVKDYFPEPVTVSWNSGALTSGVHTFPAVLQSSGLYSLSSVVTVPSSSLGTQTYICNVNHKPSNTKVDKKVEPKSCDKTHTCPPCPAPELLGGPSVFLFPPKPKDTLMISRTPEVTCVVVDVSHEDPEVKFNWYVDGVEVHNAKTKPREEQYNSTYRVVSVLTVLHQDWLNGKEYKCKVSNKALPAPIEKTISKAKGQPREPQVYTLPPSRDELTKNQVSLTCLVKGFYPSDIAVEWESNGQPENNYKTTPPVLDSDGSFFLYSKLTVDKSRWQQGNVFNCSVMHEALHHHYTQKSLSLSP
light: B1 light
B4: Fv-4-N434H (antibody, human IgG1, kappa)
heavy: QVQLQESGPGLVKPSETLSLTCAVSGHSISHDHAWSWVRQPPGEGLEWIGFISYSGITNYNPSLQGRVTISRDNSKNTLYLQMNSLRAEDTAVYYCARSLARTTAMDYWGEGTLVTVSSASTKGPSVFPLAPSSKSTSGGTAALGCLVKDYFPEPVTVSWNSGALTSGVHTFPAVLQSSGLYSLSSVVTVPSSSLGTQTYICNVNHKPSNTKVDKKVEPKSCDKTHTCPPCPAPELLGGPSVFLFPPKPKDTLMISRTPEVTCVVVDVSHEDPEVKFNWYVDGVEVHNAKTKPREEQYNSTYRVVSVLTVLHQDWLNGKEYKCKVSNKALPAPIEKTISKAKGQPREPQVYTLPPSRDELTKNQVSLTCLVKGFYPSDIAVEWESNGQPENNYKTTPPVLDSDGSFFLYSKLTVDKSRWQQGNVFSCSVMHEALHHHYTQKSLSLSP
light: B1 light
B5: Fv-4-F1166 (antibody)
heavy: B1 heavy with M254Y, S256T, T258E, H436N
light: B1 light
B6: Fv-4-F1167 (antibody, human IgG1, kappa)
heavy: B1 heavy with M254Y, S256T, T258E, S426N, H436N, R440Q, E442S
light: B1 light
B7: Fv-4-F890 (antibody, human IgG1, kappa)
heavy: B1 heavy with M254Y, H436Y, Y438V, R440Q, E442S
light: B1 light
notes: M252Y/N434Y/Y436V (EU)
B8: Fv-4-F1115 (antibody, human IgG1, kappa)
heavy: B1 heavy with M254Y, S426N, H436Y, Y438V, R440Q, E442S
light: B1 light
B9: Fv-4-YTE (antibody, human IgG1, kappa)
heavy: B1 heavy with M254Y, S256T, T258E, H436N, R440Q, E442S
light: B1 light
B10: Fv-4-F1340 (antibody)
heavy: B1 heavy with L237R, S241K, M254Y, S256T, T258E, H436Y, Y438V, R440K
light: B1 light
B11: Fv-4-F939 (antibody, human IgG1, kappa)
heavy: B1 heavy with L237R, S241K, M254Y, H436Y, Y438V, R440Q, E442S
light: B1 light
B12: Fv-4-F1269 (antibody)
heavy: B1 heavy with L237R, S241K, M254Y, H435D, H436Y, Y438V, R440K, E442D
light: B1 light
B13: Fv-4-F1245 (antibody)
heavy: B1 heavy with L237R, S241K, M254Y, S256T, T258E, H436Y, Y438V
light: B1 light
notes: L235R/S239K/M252Y/S254T/T256E/N434Y/Y436V/Q438R/S440E (EU)
B14: Fv-4-F1268 (antibody)
heavy: B1 heavy with L237R, S241K, M254Y, H435D, H436Y, Y438V
light: B1 light
B15: Fv-4-F1323 (antibody)
heavy: B1 heavy with L237R, S241K, M254Y, S256T, H435D, H436Y, Y438V, R440K
light: B1 light
B16: Fv-4-F1321 (antibody)
heavy: B1 heavy with L237R, S241K, M254Y, S256T, H436Y, Y438V, R440K
light: B1 light
B17: Fv-4-F1243 (antibody)
heavy: B1 heavy with L237R, S241K, M254Y, S256T, H436Y, Y438V
light: B1 light
notes: L235R/S239K/M252Y/S254T/N434Y/Y436V/Q438R/S440E (EU)
B18: Fv-4-F1291 (antibody, human IgG1, kappa)
heavy: B1 heavy with L237R, S241K, M254Y, H435D, H436Y, Y438V, R440Q, E442S
light: B1 light
B19: Fv-4-F652 (antibody, human IgG1, kappa)
heavy: B1 heavy with P240D, M254Y, H436Y, R440Q, E442S
light: B1 light
notes: VH3-F652 (P238D/M252Y/N434Y) and VL3-CK
B20: Fv-4-F1391 (antibody, human IgG1, kappa)
heavy: B1 heavy with M430L, H436S, Y438N, R440Q, E442S
light: B1 light
B21: Fv-4-F1390 (antibody, human IgG1, kappa)
heavy: B1 heavy with M430L, H436S, Y438H, R440Q, E442S
light: B1 light
B22: Fv-4-F1392 (antibody, human IgG1, kappa)
heavy: B1 heavy with M430L, H436S, Y438K, R440Q, E442S
light: B1 light
B23: Fv-4-F11 (antibody, human IgG1, kappa)
heavy: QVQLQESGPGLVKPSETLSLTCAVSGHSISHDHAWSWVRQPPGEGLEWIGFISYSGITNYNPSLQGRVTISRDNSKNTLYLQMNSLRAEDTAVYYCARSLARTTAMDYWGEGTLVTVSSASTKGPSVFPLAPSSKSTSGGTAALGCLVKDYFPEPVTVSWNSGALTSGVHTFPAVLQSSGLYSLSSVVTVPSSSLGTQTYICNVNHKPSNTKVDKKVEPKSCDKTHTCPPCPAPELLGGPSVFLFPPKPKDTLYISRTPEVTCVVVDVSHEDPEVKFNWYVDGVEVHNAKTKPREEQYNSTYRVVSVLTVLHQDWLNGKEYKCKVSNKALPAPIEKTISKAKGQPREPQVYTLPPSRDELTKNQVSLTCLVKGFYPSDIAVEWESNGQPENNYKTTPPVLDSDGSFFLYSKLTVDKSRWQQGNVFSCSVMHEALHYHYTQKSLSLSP
light: B1 light
notes: VH3-F11 (M252Y/N434Y) and VL3-CK
B24: Fv-4-F890 (antibody, human IgG1, kappa)
heavy: B1 heavy with M254Y, H436Y, Y438V, R440Q, E442S
light: B1 light
notes: VH3-F890 (M252Y/N434Y/Y436V) and VL3-CK; also called Fv-4-890

T1 sequence (P55899 24-297 limits assumed, chain 1 of 2): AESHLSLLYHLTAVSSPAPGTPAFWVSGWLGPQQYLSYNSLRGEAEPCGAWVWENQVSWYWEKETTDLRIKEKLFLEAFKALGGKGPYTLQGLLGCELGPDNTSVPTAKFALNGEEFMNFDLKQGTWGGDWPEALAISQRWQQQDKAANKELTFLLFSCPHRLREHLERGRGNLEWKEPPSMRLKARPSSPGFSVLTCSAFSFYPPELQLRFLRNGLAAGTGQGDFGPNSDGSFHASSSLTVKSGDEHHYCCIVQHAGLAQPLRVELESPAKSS
T1 sequence (P61769 21-119 limits assumed, chain 2 of 2): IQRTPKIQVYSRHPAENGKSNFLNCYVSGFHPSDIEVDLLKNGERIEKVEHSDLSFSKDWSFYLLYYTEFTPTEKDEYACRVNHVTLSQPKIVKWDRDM

The first experiment has as its target T1, soluble human FcRn (human, UniProt P55899 24-297; P61769 21-119).
T1 construct: Heterodimer of alpha chain and beta2-microglobulin; also called hFcRn
Put plainly: SPR (Biacore), pH 6.0.
Molecule B1 showed a Kd of 400 nM.

For the molecule B2, the Kd came to 240 nM.

With B3, the Kd amounted to 530 nM.

Regarding B4, the Kd came out at 430 nM.

B5 came in with a Kd of 210 nM.

Molecule B6 returned a Kd of 250 nM.

Another experiment addresses T1, soluble human FcRn. Put plainly: SPR (Biacore), pH 7.0.
The molecule B7 gave a Kd of 110 nM.

On to B8, for which the Kd turned out to be 130 nM.

The next experiment addresses T1, soluble human FcRn. Put plainly: SPR (Biacore), pH 6.0; pH 6.0 (acidic pH, not neutral pH).
Take B9: the affinity, expressed as Kd, was 210 nM.

A further experiment concerns the target T1, soluble human FcRn. Put plainly: SPR (Biacore), pH 7.0. This is another data set of the same source.
B10 registered a Kd of 56 nM.

B11 returned a Kd of 150 nM.

B12 returned a Kd of 170 nM.

Molecule B13 yielded an equilibrium dissociation constant (Kd) of 82 nM.

B14 registered a Kd of 200 nM.

With B15, binding was put at a Kd of 150 nM.

B16 registered a Kd of 100 nM.

On to B17, for which the Kd came out at 130 nM.

For B18, the Kd was 150 nM.

For a further experiment, the target named is T2, soluble human FcRn (heterodimer of FcRn alpha chain and beta2-microglobulin) (human, UniProt P55899 24-297; P61769 21-119).
T2 construct: Signal regions are part of the expressed constructs; also called hFcRn
T2 sequence (P55899 24-297 limits assumed, chain 1 of 2): as the sequence (P55899 24-297 limits assumed, chain 1 of 2) above
T2 sequence (P61769 21-119 limits assumed, chain 2 of 2): as the sequence (P61769 21-119 limits assumed, chain 2 of 2) above
Put plainly: SPR (Biacore), hFcRn, measured in multiplicates; n=7.
Regarding B19, the Kd is 240 nM.

The next experiment has as its target T1, soluble human FcRn. Put plainly: SPR (Biacore), pH 6.0. The source holds these as a separate data set.
Molecule B20 had a Kd of 420 nM.

Molecule B21 registered a Kd of 400 nM.

B22 gave a Kd of 270 nM.

In another experiment the target is T1, soluble human FcRn. Put plainly: SPR (Biacore), pH 7.0. This is another data set of the same source.
Regarding B7, the Kd came out at 107 nM.

The next experiment deals with T2, soluble human FcRn (heterodimer of FcRn …). Put plainly: SPR (Biacore), hFcRn, measured in multiplicates; n=12.
Regarding B23, binding was put at a Kd of 310 nM.

B24 yielded a Kd of 110 nM.
